# According to patent US20250179196A1 (Janssen / Centocor, published 2025):
# T1: rat IL-23R extracellular domain (ECD) protein (rat)
# T1 construct: also called rat IL-23R ECD; F1LX96 amino acids 24-354
# T1 chain: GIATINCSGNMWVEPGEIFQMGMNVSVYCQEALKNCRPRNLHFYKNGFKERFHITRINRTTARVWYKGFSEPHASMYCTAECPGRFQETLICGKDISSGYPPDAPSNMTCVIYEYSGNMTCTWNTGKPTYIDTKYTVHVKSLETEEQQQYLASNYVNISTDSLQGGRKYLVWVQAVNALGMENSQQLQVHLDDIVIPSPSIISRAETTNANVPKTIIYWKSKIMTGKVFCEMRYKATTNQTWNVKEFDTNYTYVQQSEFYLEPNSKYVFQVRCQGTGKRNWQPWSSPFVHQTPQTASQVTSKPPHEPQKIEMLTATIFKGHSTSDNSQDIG
# T2: Recombinant human IL-23 receptor (IL-23R) extracellular domain (ECD) protein (human, UniProt Q5VWK5 24-355)
# T2 construct: also called human IL-23R ECD; hu IL-23R ECD
# T2 sequence: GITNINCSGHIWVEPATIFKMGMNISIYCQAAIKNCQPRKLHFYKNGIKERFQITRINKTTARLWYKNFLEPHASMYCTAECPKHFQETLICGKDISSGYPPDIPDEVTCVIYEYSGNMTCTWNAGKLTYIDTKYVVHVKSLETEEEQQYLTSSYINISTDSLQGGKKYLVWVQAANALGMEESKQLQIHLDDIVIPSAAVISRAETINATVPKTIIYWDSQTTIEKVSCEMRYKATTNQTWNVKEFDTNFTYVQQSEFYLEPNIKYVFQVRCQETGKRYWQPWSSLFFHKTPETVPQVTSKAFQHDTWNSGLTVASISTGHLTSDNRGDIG
# T3: human IL-23R expressed on the cell surface of stably transfected iLite and HEK cell lines (human, UniProt Q5VWK5 24-629)
# T3 construct: whole, on cells; Same receptor on two transfected cell lines; the cell line is named under assay; also called human IL-23R iLite cells; human IL-23R HEK cells
# T3 sequence (looked up): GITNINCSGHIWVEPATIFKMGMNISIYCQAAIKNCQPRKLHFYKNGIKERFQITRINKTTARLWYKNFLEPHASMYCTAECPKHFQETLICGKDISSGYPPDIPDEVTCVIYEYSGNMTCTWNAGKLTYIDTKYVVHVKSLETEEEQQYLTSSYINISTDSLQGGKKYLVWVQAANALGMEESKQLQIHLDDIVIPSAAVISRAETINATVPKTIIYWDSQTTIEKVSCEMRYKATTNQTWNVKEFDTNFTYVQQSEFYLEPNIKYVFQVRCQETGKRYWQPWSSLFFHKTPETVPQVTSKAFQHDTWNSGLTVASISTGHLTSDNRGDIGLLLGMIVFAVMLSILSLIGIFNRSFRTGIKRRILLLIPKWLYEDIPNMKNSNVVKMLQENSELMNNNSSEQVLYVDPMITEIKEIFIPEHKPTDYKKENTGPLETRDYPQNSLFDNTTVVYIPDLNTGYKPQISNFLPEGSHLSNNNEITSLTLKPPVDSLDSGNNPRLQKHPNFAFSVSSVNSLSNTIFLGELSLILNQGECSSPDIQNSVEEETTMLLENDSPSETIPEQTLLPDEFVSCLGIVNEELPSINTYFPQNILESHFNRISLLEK
# Experiments:
# [1] = molecular target: T1, rat IL-23R extracellular domain (ECD) …; assay: SPR Biacore 8K, supernatant
# Method: (§1) Affinity by SPR using Biacore 8K. Affinity measurements using Surface Plasmon Resonance (SPR) were performed using a Biacore 8K system (Cytiva). […] Approximately 9000-10000 RU (response units) of mAbs were immobilized. The kinetic experiments were performed at 25° C. in running buffer 1× of (HBS-P+ Buffer 10× (Cytiva #BR100671)+100 μg/ml BSA). To perform kinetic experiments, approximately 150 RU of mAbs were captured followed by injections of human IL-23R or rat IL-23R at concentrations ranging from 0.8 nM to 500 nM (in a 5-fold serial dilution). The association phase was monitored for 3 minutes at 50 μL/min, then followed by 30 minutes of buffer flow (dissociation phase). […] The collected data were processed using Biacore insight Evaluation software (Version 3.0.12.15655). The kinetic analysis of the data was performed using a Langmuir 1:1 binding model. The result for each mAb was reported in the format of Ka (On-rate), Kd (Off-rate) and KD (equilibrium dissociation constant).
# [2] = molecular target: T2, Recombinant human IL-23 receptor …; assay: SPR Biacore 8K, supernatant, analysis 2
# Method: as §1
# [3] = molecular target: T2, Recombinant human IL-23 receptor …; assay: SPR Biacore 8K, supernatant, analysis 1
# Method: as §1
# [4] = molecular target: T3, human IL-23R expressed on the cell …; assay: flow cytometry on human IL-23R HEK cells, Expt D (8-point, 96well)
# In short: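 Serially diluted IL-23R mAbs bound to mixed HEK-IL-23R and parental HEK cells for 30 min at 37 °C, in duplicate. After washes, 647 detection antibody geometric MFI measured on single viable (Sytox Green-negative) cells and fitted to a variable-slope dose-response against log mAb concentration.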
# [5] = molecular target: T3, human IL-23R expressed on the cell …; assay: flow cytometry on human IL-23R HEK cells, Expt E (11-point, 384well)
# In short: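 Antibody bound to HEK-IL-23R cells 30 min at 37 °C over 11 concentrations; after washes, Sytox Green added and cells run on iQue. Geometric MFI of 647 detection antibody on single viable cells fitted by variable-slope dose–response.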
Binder,binding result [1],Kd [2],koff [2],kon [2],Kd [3],koff [3],kon [3],EC50 [4],EC50 [5],MFI (6.4 nM) [5]
"I23RB318 (antibody, mouse IgG2a, kappa, V domains shown, phage display; human V regions, mouse IgG2a/kappa constant regions) VH: QVQLVQSGAEVKKPGSSVKVSCKASGGTFSSYAISWVRQAPGQGLEWMGGIIPIFGTANYAQKFQGRVTITADESTSTAYMELSSLRSEDTAVYYCARVRARHRGSFDYWGQGTLVTVSS VL: DIQMTQSPSSLSASVGDRVTITCRASQSIDRWLNWYQQKPGKAPKLLIYYASSLQSGVPSRFSGSGSGTDFTLTISSLQPEDFATYYCQQSYSTPLTFGQGTKVEIKR",no binding (tested: 500 nM),21.4 nM,0.00156 s⁻¹,72900 M⁻¹ s⁻¹,21.3 nM,0.00167 s⁻¹,78400 M⁻¹ s⁻¹,–,–,–
"I23RB313 (antibody, mouse IgG2a, kappa, V domains shown, phage display; human V regions, mouse IgG2a/kappa constant regions) VH: QVQLVQSGAEVKKPGSSVKVSCKASGGTFSSYGISWVRQAPGQGLEWMGWISAIFGTTNYAQKFQGRVTITADESTSTAYMELSSLRSEDTAVYYCARGTVPGFDYWGQGTLVTVSS VL: DIQMTQSPSSLSASVGDRVTITCRASQSIGEDLNWYQQKPGKAPKLLIYAASSLQSGVPSRFSGSGSGTDFTLTISSLQPEDFATYYCQQSYSTPLTFGQGTKVEIKR",no binding (tested: 500 nM),4.85 nM,0.000108 s⁻¹,22300 M⁻¹ s⁻¹,< 4.98 nM,< 2.89e-05 s⁻¹,5800 M⁻¹ s⁻¹,–,–,–
"I23RB102 (antibody, mouse IgG2a, kappa, V domains shown, mouse immunization; mouse IgG2a/kappa) VH: QVQLQQPGAELVKPGASVKVSCKASGYTFTKYWINWMNQRPGQGLEWIGNIYPGSISTNYNEKFKSKVTLTVDISSSTAYMQLSSLTSDDSAVYYCARGDFYALDYWGQGTTLTVSS VL: DIQMTQSPASLSVSVGETVTITCRASENIYSHITWYQLKQGKSPQLLVYASTNLADDVPSRFSGSGSGTQYSLKINSLLSEDFGTYYCQHFWGTPWTFGGGTKLEMKR",no binding (tested: 500 nM),18.5 nM,0.00873 s⁻¹,471000 M⁻¹ s⁻¹,–,–,–,–,–,–
"I23RB87 (antibody, mouse IgG2a, kappa, V domains shown, mouse immunization; mouse IgG2a/kappa) VH: EFQLQQSGPELVKPGTSVKMSCKASGYTFTNYVMHWVKQKPGQGLEWIGYINPYDASPKYNEKFKGKAILTSDKSSSTAYMELSSLTSEDSAVYYCTRDAKLDYFDYWGQGTTLTVSS VL: DIVMTQTTSSLSASLGDRVTISCRASQDISNYLNWYQQKPDGTVKLLIYYTSRLHSGVPSRFSGSGSGTDFSLTISNLEQEDIATYFCQQGITLPWTFGAGTKLELKR",no binding (tested: 500 nM),10.9 nM,0.000945 s⁻¹,86500 M⁻¹ s⁻¹,–,–,–,–,–,–
"I23RB81 (antibody, mouse IgG2a, kappa, V domains shown, mouse immunization; mouse IgG2a/kappa) VH: DVQLQESGPGLVAPSQSLSITCTVSGFSLTSYAINWVRQPPGKGLEWLGVIWTGGGTNYNSALKSRLSISKDNSKSQLFLKMNSLQTDDTARYYCARNRDYSNYRWYFDVWGAGTSVTVSS VL: DIVMTQSHKFMSTSVGDRVSIICKASQDVSTAVAWYQQKPGQSPKLLIYSASYRYTGVPDRFTGSGSGTDFTFTISSVQAEDLAVYYCQQHYSTPLTFGAGTRLEIKR",no binding (tested: 500 nM),8.89 nM,0.00173 s⁻¹,195000 M⁻¹ s⁻¹,–,–,–,–,–,–
"I23RB78 (antibody, mouse IgG2a, kappa, V domains shown, mouse immunization; mouse IgG2a/kappa) VH: EFQLQQSGGGLVKPGGSLKLSCAASGFTFSNYTMSWVRQTPEKRLKWVACISSGGGNTYYPDSVKGRFTISRDNARNTLYLQMSSLRSEDTAMYYCARRNYRRAMDYWGQGTSVTVSS VL: DIVMTQSPASLAVSLGQRATISCRASESVDSYGISFMHWYQQKPGQPPKLLIYRASNLESGIPARFSGSGSRTDFTLTINPVEADDVATYYCQQSNEDPWTFGAGTGLEIKR",no binding (tested: 500 nM),4.33 nM,0.000774 s⁻¹,179000 M⁻¹ s⁻¹,–,–,–,–,–,–
"I23RB74 (antibody, mouse IgG2a, kappa, V domains shown, mouse immunization; mouse IgG2a/kappa) VH: DVQLQESGPGLVKPSQSLSLTCSVTGYSITSGYYWNWIRQFPGNKLEWMGYISYDGSFNYNPSLKNRLSITRDTSMNQFFLKLNSVTSEDTATYYCARAEIYYDYDGDFDYWGQGTTLTVSS VL: DIVLTQSPASLAVSLGQRATISCRASKSVSTSGSNFLHWYQQKPGQPPKLLIYFASNLESGVPARFSGSGSGTDFTLNIHPVEEEDAATYYCQHSRELPHTFGAGTKLELKR",no binding (tested: 500 nM),2.33 nM,0.00222 s⁻¹,954000 M⁻¹ s⁻¹,–,–,–,–,–,–
"I23RB67 (antibody, mouse IgG2a, kappa, V domains shown, mouse immunization; mouse IgG2a/kappa) VH: EVQLQQSGAELVKPGASVKLSCKASGYTFTSYWINWVKQRPGQGLEWIGNIYPGSSSTNYNEKFKSKATLTVDTSSSTAYMQLSSLTSDDSAVYYCARSAYGNRLAMDYWGQGTTLTVSS VL: DVVMTQSHKFMSTSVGDRVSITCKASQDVSTAVAWYQQKPGQSPKLLIYSAFYRYTGVPDRFTGSGSGTDFTFTISSVQAEDLAVYYCQQHYSTPYTFGGGTKLELKR",no binding (tested: 500 nM),25.4 nM,0.0172 s⁻¹,677000 M⁻¹ s⁻¹,–,–,–,–,–,–
"I23RB54 (antibody, mouse IgG2a, kappa, V domains shown, mouse immunization; mouse IgG2a/kappa) VH: EVQLQQSGGGLVKPGGSLKLSCAASGFTFSSYAMSWVRQTPEKRLEWVAGISSGGSYIYYPDNVKGRFTISRDNARNTLYLQMSSLRSEDTAMYYCARKKSDYGAMDYWGQGTTLTVSS VL: DIQMTQSPKFLLVSAGDRVTITCKASQSVSNDVAWYQQKPGQSPRLLIYYASNRYTGVPDRFTGSGYGTDFTFTISTVQAEDLAVYFCQQDYSSLPTFGAGTKLEMKR",no binding (tested: 500 nM),183 nM,0.0979 s⁻¹,534000 M⁻¹ s⁻¹,–,–,–,–,–,–
"I23RB144 (antibody, mouse IgG2a, kappa, V domains shown, immunization; mouse IgG2a/kappa) VH: EVQLQQSGPELVKPGASVKMSCKASGYTFTSYIIHWVKQKPGQGLEWIGYIDPYNDDTKYNEKFKGKATLTSDKSSSTAYMEFSSLTSEDSAVYYCARLGSINYYDGSYFDYWGQGTSVTVSS VL: DIVMTQSPLTLSVIIGQSASISCKSSQSLLDSDGKTYLNWLLQRPGQSPKRLMYLVSKLDSGVPDRFTGSGSGTDFTLKISRVEAEDLGVYYCWQGIHFPLTFGSGTRLEIKR",–,–,–,–,–,–,–,13.4 nM,> 50 nM,46200 MFI
"I23RB5 (antibody, mouse IgG2a, kappa, V domains shown, phage display; human V regions, mouse IgG2a/kappa constant regions; also called negative control mAb) VH: QVQLVQSGAEVKKPGSSVKVSCKASGGTFSSYAISWVRQAPGQGLEWMGGIIPIFGTANYAQKFQGRVTITADESTSTAYMELSSLRSEDTAVYYCARDSYYSTVTYYYFDYWGQGTLVTVSS VL: not shown",no binding (tested: 500 nM),–,–,–,–,–,–,–,–,–
"I23RB80 (antibody, mouse IgG2a, kappa, V domains shown, mouse immunization; mouse IgG2a/kappa) VH: DVQLQESGPGLVQPSQSLSITCTVSGFSLTSYGVHWVRQSPGKGLEWLGVIWSGVSTDYNAAFISRLSISKDNSKSQVFFKMNSLQADDTAIYYCARSRGSYYFDYWGQGTTLTVSS VL: DIVMTQSQKFMSTSEGDRVNITCKASQNIRTAVAWYQQKPGQSPKPLIYLASNRHTGVPDRFTGSGSGTDFTLTISNVQSEDLAEYFCLQHWNYPLTFGAGTKLELKR",no binding (tested: 500 nM),–,–,–,–,–,–,–,–,–
